Laboratory results as given in patent publication US20030148377A1, “Binding compounds and methods for identifying binding compounds” (priority 2000, published 2003).

Tests used:
ZAP-70 [1] = target: T1, ZAP-70 (Homo sapiens, UniProt P43403); assay: Inhibition of tubulin phosphorylation by ZAP-70; format: biochemical; conditions: tubulin (5 μM) as substrate; FIG. 1D; compared to peptide 4
T1 construct: made in house; host or cells: Sf9 cells (baculovirus)
T1 sequence (P43403 1-619): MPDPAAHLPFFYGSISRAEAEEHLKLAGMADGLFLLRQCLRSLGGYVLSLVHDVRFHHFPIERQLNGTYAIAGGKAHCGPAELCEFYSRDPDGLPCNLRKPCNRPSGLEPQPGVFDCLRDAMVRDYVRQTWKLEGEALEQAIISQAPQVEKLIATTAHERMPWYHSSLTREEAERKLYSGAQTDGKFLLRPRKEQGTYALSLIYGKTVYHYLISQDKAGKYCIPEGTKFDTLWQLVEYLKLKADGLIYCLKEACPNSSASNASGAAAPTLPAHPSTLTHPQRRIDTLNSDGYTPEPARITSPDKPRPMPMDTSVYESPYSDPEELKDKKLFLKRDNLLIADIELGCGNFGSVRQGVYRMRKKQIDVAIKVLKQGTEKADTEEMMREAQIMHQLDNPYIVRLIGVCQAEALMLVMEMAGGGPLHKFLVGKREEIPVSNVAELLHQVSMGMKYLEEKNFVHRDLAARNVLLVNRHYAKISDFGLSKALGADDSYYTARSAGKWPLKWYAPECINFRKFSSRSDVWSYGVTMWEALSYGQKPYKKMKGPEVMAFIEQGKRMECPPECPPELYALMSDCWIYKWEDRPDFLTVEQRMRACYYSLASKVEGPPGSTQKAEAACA
Description: FIG. 1A: A glutathione-S-transferase chimera of ZAP-70 was purified from Sf9 cells and assayed for its ability to phosphorylate tubulin in the presence of 0, 50, or 100 μM of peptide 1 (SEQ ID NO: 5) or peptide 2 (SEQ ID NO: 6). The assay was carried out in kinase buffer (5 mM MnCl2, 5 mM MgCl2, 25 mM Tris [pH 7.4]), 50 μM ATP, and […] [γ-^32P]ATP for 5 min at 30° C. ^32P-phosphorylated tubulin was separated on SDS-PAGE, visualized by autoradiography (inset), and quantitated using a molecular imager (Bio-Rad).
FIG. 1D: The ZAP-70 Tyr-kinase assay was as described above, using tubulin (5 μM) as substrate. […]
(§1) Synthetic peptides, tubulin, or GST-band III (construct kindly provided by A. Weiss, University of California, San Francisco) (Zhao and Weiss, 1996) were phosphorylated by ZAP-70-GST-fused protein in the presence or absence of the indicated amount of inhibitory peptides in the kinase buffer (10 mM MnCl2, 50 mM Tris [pH 7.4], 1 mM DTT), 100 μM ATP, and 5 μCi [γ-^32P]ATP for 5 min (or 10 min for GST-band-III) at 30° C. The amount of radioactivity incorporated into substrate peptide was determined using the phosphocellulose assay. […] Phosphorylated tubulin, GST-band III, and myelin basic protein were separated on SDS-PAGE, visualized by autoradiography, and quantitated using a molecular imager (Bio-Rad, Hercules, Calif.).

Lck-GST-fused protein = target: T2, Lck-GST-fused protein (Homo sapiens, UniProt P06239); assay: Inhibition of myelin basic protein phosphorylation by Lck; format: biochemical; conditions: myelin basic protein (5 μM) as substrate; FIG. 1E; compared to peptide 4
T2 construct: made in house; host or cells: Sf9 cells
T2 sequence (P06239 whole entry, the tested form may be a part): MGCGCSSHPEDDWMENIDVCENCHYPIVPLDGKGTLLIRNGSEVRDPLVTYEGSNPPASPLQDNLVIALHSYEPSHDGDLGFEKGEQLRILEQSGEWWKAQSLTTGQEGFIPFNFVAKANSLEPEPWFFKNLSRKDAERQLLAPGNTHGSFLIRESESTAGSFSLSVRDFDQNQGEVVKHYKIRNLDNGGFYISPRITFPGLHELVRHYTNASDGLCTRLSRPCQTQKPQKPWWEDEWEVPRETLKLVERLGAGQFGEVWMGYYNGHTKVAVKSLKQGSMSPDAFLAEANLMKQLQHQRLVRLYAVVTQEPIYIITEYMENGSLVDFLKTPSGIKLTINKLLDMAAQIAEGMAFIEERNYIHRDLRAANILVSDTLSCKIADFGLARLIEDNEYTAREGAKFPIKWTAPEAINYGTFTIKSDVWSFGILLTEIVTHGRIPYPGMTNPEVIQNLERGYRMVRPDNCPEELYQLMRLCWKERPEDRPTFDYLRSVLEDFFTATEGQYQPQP
Description: FIG. 1E: A glutathione-S-transferase chimera of Lck was purified from Sf9 cells and assayed for the ability to phosphorylate myelin basic protein (5 μM) in the presence or absence of the same three peptides as used in FIG. 1D. The assay was carried out for 5 min at 30° C.
as §1, with “assay. Lck-GST-fused protein was purified from Sf9 cells. Myelin basic protein was phosphorylated by Lck-GST-fused protein in the presence or absence of inhibitory peptides in the kinase buffer (5 mM MnCl2, 5 mM MgCl2, 25 mM Tris [pH 7.4]), 50 μM ATP, and 5 μCi [γ-^32P]ATP for 5 min at 30° C.” for “assay.”

ZAP-70 [2] = target: T1, ZAP-70; assay: Inhibition of ZAP-70 phosphorylation of peptide 1 (phosphocellulose assay, Lineweaver-Burke plot); format: biochemical; conditions: peptide 1 as substrate; FIG. 1B; compared to peptide 4
Description: FIG. 1B: ZAP-70 was also assayed for its ability to phosphorylate peptide 1 (10 μM) in the presence of 0, 10, or 50 μM of peptide 4 (SEQ ID NO: 9) or peptide 5 (SEQ ID NO: 10). Peptide phosphorylation was determined by spotting the reaction mixture on phosphocellulose and washing away the ^32P-ATP with a phosphate buffer. The polylysine tail of peptide 1 facilitates retention on the phosphocellulose (Songyang et al., 1996). The data are presented as the percentage of the activity present in the absence of inhibitory peptides. […]
as §1

[3] = substrate: CC[C@H](C)[C@H](NC(=O)[C@H](CC(C)C)NC(=O)[C@@H](N)CCC(=O)O)C(=O)N[C@@H](CC(C)C)C(=O)N[C@@H](Cc1ccc(O)cc1)C(=O)N[C@@H](CC(C)C)C(=O)N[C@@H](CC(C)C)C(=O)N[C@@H](CC(C)C)C(=O)N[C@@H](CC(C)C)C(=O)N[C@@H](C)C(=O)N[C@@H](CCCCN)C(=O)N[C@@H](CCCCN)C(=O)N[C@@H](CCCCN)C(=O)O; assay: Kinetic parameters for the phosphorylation of synthetic peptides by ZAP-70 (phosphocellulose assay); format: biochemical, Human; conditions: other: peptide as substrate, 100 μM ATP, 5 min at 30° C., average of three independent experiments
Description: (§2) Human ZAP-70-glutathione S-transferase (GST)-fused protein was expressed in Sf9 cells using baculovirus. In this study, we used GST-ZAP-70 expressed in Sf9 cells without coexpression of Lck for library screening and kinase assays because the substrate selectivity of partially activated ZAP-70 is higher than that of fully activated ZAP-70 in peptide library screening for their specific substrate motifs (unpublished results). ZAP-70-GST fused protein (600 μg) was purified by using glutathione-agarose beads. […]
as §1, with “Calif.). […]” for “Calif.).”

[4] = substrate: CC[C@H](C)[C@H](NC(=O)[C@H](CC(C)C)NC(=O)[C@@H](N)CCCCN)C(=O)N[C@@H](CC(C)C)C(=O)N[C@@H](Cc1ccc(O)cc1)C(=O)N[C@@H](CC(C)C)C(=O)N[C@@H](CC(C)C)C(=O)N[C@@H](CC(C)C)C(=O)N[C@@H](CC(C)C)C(=O)N[C@@H](C)C(=O)N[C@@H](CCCCN)C(=O)N[C@@H](CCCCN)C(=O)N[C@@H](CCCCN)C(=O)O; assay: as above; format: biochemical, Human; conditions: other: peptide as substrate, 100 μM ATP, 5 min at 30° C., average of three independent experiments
Description: as §2
as §1, with “Calif.). […]” for “Calif.).”

[5] = target: T3, peptide 2 (predicted optimal ZAP-70 binding peptide, KLILYLLLL AKKK)
T3 chain: KLILYLLLLAKKK

[6] = target: T4, peptide 3 (ELILYLLLL AKKK)
T4 chain: ELILYLLLLAKKK

[7] = target: T5, peptide 1 (optimal ZAP-70 substrate, EEEEYFFII AKKK)
T5 chain: EEEEYFFIIAKKK

[8] = target: T6, Human ZAP-70-glutathione S-transferase (GST)-fused protein (human, UniProt P43403 1-619); assay: comparison of ZAP-70 inhibition by peptide 4 and peptide 6, tubulin as substrate
T6 construct: the SH2 domains are spoken of as present; also called ZAP-70-GST fused protein; GST-ZAP-70; not shown: glutathione S-transferase (GST) fusion partner
T6 sequence (looked up): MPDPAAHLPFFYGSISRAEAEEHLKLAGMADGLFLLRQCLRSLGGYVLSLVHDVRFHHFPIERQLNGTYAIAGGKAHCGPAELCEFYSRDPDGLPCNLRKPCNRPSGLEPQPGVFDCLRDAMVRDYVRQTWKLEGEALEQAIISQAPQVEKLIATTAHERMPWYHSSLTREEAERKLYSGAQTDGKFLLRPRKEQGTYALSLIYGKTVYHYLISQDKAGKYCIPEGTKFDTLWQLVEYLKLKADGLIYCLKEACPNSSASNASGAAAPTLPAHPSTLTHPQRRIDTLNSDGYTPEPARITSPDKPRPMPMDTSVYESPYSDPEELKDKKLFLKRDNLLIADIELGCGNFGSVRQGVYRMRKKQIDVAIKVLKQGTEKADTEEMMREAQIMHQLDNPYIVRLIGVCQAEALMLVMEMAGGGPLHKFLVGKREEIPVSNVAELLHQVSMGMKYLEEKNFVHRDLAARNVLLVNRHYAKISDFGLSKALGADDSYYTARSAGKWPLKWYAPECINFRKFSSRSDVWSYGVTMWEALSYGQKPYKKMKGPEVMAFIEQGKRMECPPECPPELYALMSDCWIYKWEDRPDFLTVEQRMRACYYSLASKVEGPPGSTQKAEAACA

With “KLILYLLLL [peptide 6, identical to peptide 4 except for Tyr replacing the Phe]” the “ZAP-70 inhibitory effect (in words)” value (ZAP-70 [1]) was “little effect on peptide binding to ZAP-70”.

In the case of “peptide 5: peptide 4 with deletion of the Lys at position −4 (LILYLLLL)”, the “Lck inhibitory effect (in words)” value (Lck-GST-fused protein) is reported as “less effective as an inhibitor of both kinases”, the “inhibitory ability on ZAP-70 (in words)” value (ZAP-70 [2]) is reported as “dramatically reduced the inhibitory ability” and the “ZAP-70 inhibitory effect (in words)” value (ZAP-70 [1]) is reported as “less effective as an inhibitor of both kinases”.

B1: ZAP-70-GST-fused protein (Homo sapiens) (protein)
chain: MPDPAAHLPFFYGSISRAEAEEHLKLAGMADGLFLLRQCLRSLGGYVLSLVHDVRFHHFPIERQLNGTYAIAGGKAHCGPAELCEFYSRDPDGLPCNLRKPCNRPSGLEPQPGVFDCLRDAMVRDYVRQTWKLEGEALEQAIISQAPQVEKLIATTAHERMPWYHSSLTREEAERKLYSGAQTDGKFLLRPRKEQGTYALSLIYGKTVYHYLISQDKAGKYCIPEGTKFDTLWQLVEYLKLKADGLIYCLKEACPNSSASNASGAAAPTLPAHPSTLTHPQRRIDTLNSDGYTPEPARITSPDKPRPMPMDTSVYESPYSDPEELKDKKLFLKRDNLLIADIELGCGNFGSVRQGVYRMRKKQIDVAIKVLKQGTEKADTEEMMREAQIMHQLDNPYIVRLIGVCQAEALMLVMEMAGGGPLHKFLVGKREEIPVSNVAELLHQVSMGMKYLEEKNFVHRDLAARNVLLVNRHYAKISDFGLSKALGADDSYYTARSAGKWPLKWYAPECINFRKFSSRSDVWSYGVTMWEALSYGQKPYKKMKGPEVMAFIEQGKRMECPPECPPELYALMSDCWIYKWEDRPDFLTVEQRMRACYYSLASKVEGPPGSTQKAEAACA
notes: made in house; host or cells: Sf9 cells (baculovirus)
With B1 the Km [3] was 188 µM, the Km [4] was 26 µM and the Km (µM) for phosphorylation of the synthetic peptide by ZAP-70 [5] was 26 µM. For the same molecule, the Km (µM) for phosphorylation of the synthetic peptide by ZAP-70 [6] was 188 µM, the “Km relative to peptide 2” value [6] was 7-fold higher Km than peptide 2 and the Km (µM) for phosphorylation of the synthetic peptide by ZAP-70 [7] was 40 µM.

B2: peptide 6 (KLILYLLLL) (peptide)
peptide: KLILYLLLL
notes: Identical to peptide 4 except for Tyr replacing the Phe
B2: binds [8].
